The target in data set [1] is T1, M.HhaI methyltransferase (UniProt P05102 1-327).
T1 sequence: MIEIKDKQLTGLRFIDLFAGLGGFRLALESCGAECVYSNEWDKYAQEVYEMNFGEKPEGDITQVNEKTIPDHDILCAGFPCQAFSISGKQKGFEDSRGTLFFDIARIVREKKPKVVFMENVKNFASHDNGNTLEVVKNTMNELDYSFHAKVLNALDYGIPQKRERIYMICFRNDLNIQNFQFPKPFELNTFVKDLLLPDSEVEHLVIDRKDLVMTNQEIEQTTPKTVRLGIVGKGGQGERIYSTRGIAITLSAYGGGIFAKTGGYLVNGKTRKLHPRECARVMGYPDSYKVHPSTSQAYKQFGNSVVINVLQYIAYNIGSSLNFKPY
As to the kind of experiment: electrochemical E-DNA sensor.

Data set [2] has as its target T1, M.HhaI methyltransferase. As to the kind of experiment: electrochemical E-DNA sensor. This is another data set of the same source.

Where two headings read alike, the source gives them in different places.

B1: TATA probe (structured_DNA)
DNA: CGGGCTATATAAGGGGCGTTTTCTTATATAG
modifications: 5' HS-(CH2)6 thiol; internal T10 C5-linked methylene blue
Consider B1, for which the binding result with M.HhaI methyltransferase [1] was “no binding”.

B2: M.HhaI probe (structured_DNA)
DNA: AAGACGAGCGCATGTTTATGCGCTC
modifications: 5' HS-(CH2)6 thiol; internal T16 C5-linked methylene blue
On to B2, for which, in the data set with M.HhaI methyltransferase [2], the binding result is on record as “binds”.

The values are drawn from paper PMC2692654.
